Earlier results, collected in PMC12384152.

Target: β-spectrin repeats 14-15 (Homo sapiens) (UniProt P11277)
Chain of UniProt P11277 (P11277 1691-1907): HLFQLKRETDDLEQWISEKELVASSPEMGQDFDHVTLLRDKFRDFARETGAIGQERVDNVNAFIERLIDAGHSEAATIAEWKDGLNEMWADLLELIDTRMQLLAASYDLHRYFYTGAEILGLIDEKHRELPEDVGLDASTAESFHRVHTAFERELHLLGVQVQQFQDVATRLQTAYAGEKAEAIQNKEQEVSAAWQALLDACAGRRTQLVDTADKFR

Q: With ankyrin-1 ZU5 (from UniProt P16157) as the substance, how does the Kd read?
A: The Kd was 0.015 µM.
